Test results as given in PMC11134608, “UBR5 forms ligand-dependent complexes on chromatin to regulate nuclear hormone receptor stability” (Molecular cell, 2023).

Biological target: Full-length human FLAG-UBR5 (human) (UniProt O95071)
Test: SEC-MALS; purified UBR5 full length and Δtandem variant
Conditions: remark: other sources report otherwise

stoichiometry N: 4
Substance: Full-length human FLAG-UBR5, O95071 1-2799
